For the experiment, the target named is Rvs167 (1-265)/161 heterodimer (S. cerevisiae, UniProt P39743 1-265; P25343 1-265). In words: liposome flotation.

B1: GST-Cmd1 (natural protein)
chain: not shown
As for B1, the “stoichiometry N” value was ~0.25 calmodulin per heterodimer.

The values are drawn from PMC4855880 (Developmental cell, 2016).
